In data set [1] the target is human KCC3 (SLC12A6), K+-Cl- cotransporter 3, full length (human) (UniProt Q9UHW9). Kind of data set: cryo-EM structure; single particle cryo-EM of the purified full-length transporter, no inhibitor; KCC2 at 3.2 Å, KCC3 at 3.3 Å overall.
Data set [2] deals with the molecule itself. Described as above.

These results are taken from article PMC8182806, “Cryo-EM structures of the full-length human KCC2 and KCC3 cation-chloride cotransporters” (Cell Research, 2020).

By stoichiometry N is commonly meant a count of units in the complex or per binding partner. In data set [1], “human KCC3 (SLC12A6), K+-Cl- cotransporter 3, full length (from UniProt Q9UHW9-2 1-1099) (natural protein)” yielded a stoichiometry N of 2.

B1: human KCC2 (SLC12A5), K+-Cl- cotransporter 2, full length (natural protein, UniProt Q9H2X9 1-1139, looked up)
chain: MSRRFTVTSLPPAGPARSPDPESRRHSVADPRHLPGEDVKGDGNPKESSPFINSTDTEKGKEYDGKNMALFEEEMDTSPMVSSLLSGLANYTNLPQGSREHEEAENNEGGKKKPVQAPRMGTFMGVYLPCLQNIFGVILFLRLTWVVGIAGIMESFCMVFICCSCTMLTAISMSAIATNGVVPAGGSYYMISRSLGPEFGGAVGLCFYLGTTFAGAMYILGTIEILLAYLFPAMAIFKAEDASGEAAAMLNNMRVYGTCVLTCMATVVFVGVKYVNKFALVFLGCVILSILAIYAGVIKSAFDPPNFPICLLGNRTLSRHGFDVCAKLAWEGNETVTTRLWGLFCSSRFLNATCDEYFTRNNVTEIQGIPGAASGLIKENLWSSYLTKGVIVERSGMTSVGLADGTPIDMDHPYVFSDMTSYFTLLVGIYFPSVTGIMAGSNRSGDLRDAQKSIPTGTILAIATTSAVYISSVVLFGACIEGVVLRDKFGEAVNGNLVVGTLAWPSPWVIVIGSFFSTCGAGLQSLTGAPRLLQAISRDGIVPFLQVFGHGKANGEPTWALLLTACICEIGILIASLDEVAPILSMFFLMCYMFVNLACAVQTLLRTPNWRPRFRYYHWTLSFLGMSLCLALMFICSWYYALVAMLIAGLIYKYIEYRGAEKEWGDGIRGLSLSAARYALLRLEEGPPHTKNWRPQLLVLVRVDQDQNVVHPQLLSLTSQLKAGKGLTIVGSVLEGTFLENHPQAQRAEESIRRLMEAEKVKGFCQVVISSNLRDGVSHLIQSGGLGGLQHNTVLVGWPRNWRQKEDHQTWRNFIELVRETTAGHLALLVTKNVSMFPGNPERFSEGSIDVWWIVHDGGMLMLLPFLLRHHKVWRKCKMRIFTVAQMDDNSIQMKKDLTTFLYHLRITAEVEVVEMHESDISAYTYEKTLVMEQRSQILKQMHLTKNEREREIQSITDESRGSIRRKNPANTRLRLNVPEETAGDSEEKPEEEVQLIHDQSAPSCPSSSPSPGEEPEGEGETDPEKVHLTWTKDKSVAEKNKGPSPVSSEGIKDFFSMKPEWENLNQSNVRRMHTAVRLNEVIVKKSRDAKLVLLNMPGPPRNRNGDENYMEFLEVLTEHLDRVMLVRGGGREVITIYS
notes: K+-Cl- cotransporter KCC2 (SLC12A5), human, full length; Printed residues: Y407, N-terminal loop A65-N83; It says the KCC2 structure is very similar to that of KCC3; source: expressed and purified
For B1, the binding result in data set [2] was “binds”.
